Laboratory results: publication PMC6123711, “Conformational signatures in β-arrestin2 reveal natural biased agonism at a G-protein-coupled receptor” (Communications Biology, 2018)
Entries after “also recorded” stand apart in the source; their conditions may differ.

Tests used:
Type in all cases: cell-based, human
Galr2 = Galr2 internalization assay based on HiBiT technology; details: HEK293 cells; agonist 30 min; two independent experiments in triplicate
Procedure: The HiBiT protein tagging system, like NanoBiT technology, consists of two subunits: the large fragment (LgBiT) with 156 amino acids and the small fragment of Nluc (SmBiT-High-affinity) with only 11 amino acids that has a very high affinity to LgBit. To quantify Galr2 at the cell surface, cells expressing Galr2 tagged with the SmBiT-High-affinity were treated with cell-impermeable LgBiT along with the Nluc substrate furimazine. SmBiT-High-affinity-Galr2 on the cell surface binds to LgBiT which produces a luminescent signal, while SmBiT-High-affinity-Galr2 inside the cells cannot bind to LgBiT (Fig. 4a).
Fig. 4 Internalization of Galr2. a Schematic representation of the internalization assay. […] Before ligand stimulation, cells were pretreated with 30 μM Cmpd101 (a GRK2/3 inhibitor) for 30 min, 25 μM PitStop 2 (a Clathrin inhibitor) for 15 min, and 80 μM Dynasore (a Dynamin inhibitor) for 40 min. […] Remaining cell surface receptors were determined by measuring the luminescent signal produced by the binding between LgBiT and the Galr2-SmBiT-High affinity. Each data point represents mean ± s. e. m. of two independent experiments performed in triplicate
(§1) Quantification of bias between each pathway was performed using Galanin as a reference ligand. All incubations for the different signaling assays were performed in serum-free medium to prevent peptide degradation.
Internalization assays were performed using the Nano-Glo HiBiT extracellular detection system acquired from Promega Corporation (Cat. No. N2421). The day before transfection, HEK293 cells were seeded in 96-well plates at a density of 2.5 × 10^4 cells per well. The following day, cells were transfected with a mixture prepared containing 0.5 ng of SmBiT-high-affinity-Galr2 construct and 0.2 μl Lipofectamine 2000 (Invitrogen) added to each well. […] Then luminescence values were recorded immediately (Synergy 2 Multi-Mode Microplate Reader BioTek). […]

[1] = tested on: β-arrestin1–Galr2 interaction (Galr2); assay: β-Arrestin1 recruitment using NanoBit technology; details: for Log(τ/KA), β-Arrestin1: HEK293 cells, luminescence at 5 min after agonist, operational model (Eq. 2); for Log(τ/KA), β-Arrestin1 / ΔLog(τ/KA), β-Arrestin1: mean ± s.e.m. of three experiments in triplicate; for ΔLog(τ/KA), β-Arrestin1: normalized to Galanin (reference agonist), in parenthesis
Text: (§2) The β-arrestin recruitment assays were developed based on a structural complementation assay using NanoBit technology. Briefly, NanoBit technology is a system that basically consists of Nano luciferase (Nluc), which is a small protein that catalyzes a bright luminescent reaction. To create a complementation system, Nluc was separated into two subunits that individually produce very little enzymatic activity. […] Because of this low affinity for each other, these two fragments can bind when they are in close proximity. The interaction between the LgBit and the SmBit can be driven by the interactions of the fusion partners, allowing them to study protein–protein interaction in live cells. As the interaction is reversible, the association and dissociation can be monitored. There is no lag time in the loss of luminescence, and so the immediate detection allows for accurate assessment of temporal dynamics. […] To accurately monitor β-arrestin recruitment, four plasmid combinations between LgBit and SmBit with the fusion partners Galr2 and β-arrestins were screened. The plasmid combination with the highest luminescence signal was chosen for further studies (Fig. 2a, Supplementary Fig. 1). Using data points at 5 min after ligand stimulation, we obtained dose–response curves that corresponded to β-arrestin1/2 recruitment (Fig. 2d, e, Supplementary Fig. 2).
(§3) Fig. 2 The effect of different endogenous ligands in β-arrestin1/2 recruitment. a Schematic representation of the structural complementation assay used to monitor β-arrestin1/2–Galr2 interactions. Kinetic traces of β-arrestin1 (b) and β-arrestin2 (c) recruitment after Galr2 activation with 1 μM of three different agonists. Dose–response curves for recruitment of β-arrestin1 (d), and β-arrestin2 (e). Luminescence signal intensity obtained at 5 min after agonist stimulation was measured. […] The results are expressed as mean ± s.e.m. of three experiments performed in triplicate; each triplicate was averaged before calculating the s.e.m. The arrows indicate the time at which the cells were treated with the different ligands
as §1
HEK293 cells were obtained from the American Type Culture Collection (ATCC, CRL-1573; Manassas, VA, USA). They were maintained in Dulbecco’s modified Eagle’s medium (DMEM) supplemented with 10% fetal bovine serum (FBS), 100 U/ml penicillin G, and 100 μg/ml streptomycin (Invitrogen; Carlsbad, CA, USA). During the experiments, the cells were tested for mycoplasma using a Universal Mycoplasma Detection Kit (ATCC). At 1 day before transfection, the cells were seeded in 96-well plates at a density of 2.5 × 10^4 cells per well. A mixture containing 50 ng β-arrestin construct containing the LgBit or SmBit and 50 ng Galr2 containing one of the two domains of Nluc and 0.2 μl Lipofectamine 2000 (Invitrogen) was prepared and added to each well. We tested four β-arrestin-Galr2 spatial orientations. […] After a 10-min incubation, 25 μl substrate (furimazine) was added and once every minute subsequent luminescence measurements were taken for 10 min for signal stabilization. A total of 10 μl ligand was then added to each well and luminescence measurements were recorded immediately and once every minute for 1 h (Synergy 2 Multi-Mode Microplate Reader BioTek, Winooski, VT, USA).

[2] = tested on: β-arrestin2–Galr2 interaction (Galr2); assay: β-Arrestin2 recruitment using NanoBit technology; details: for Log(τ/KA), β-Arrestin2: HEK293 cells, luminescence at 5 min after agonist, operational model (Eq. 2)
Text: as §2, §3, §1
HEK293 cells were obtained from the American Type Culture Collection (ATCC, CRL-1573; Manassas, VA, USA). […] After a 10-min incubation, 25 μl substrate (furimazine) was added and once every minute subsequent luminescence measurements were taken for 10 min for signal stabilization. A total of 10 μl ligand was then added to each well and luminescence measurements were recorded immediately and once every minute for 1 h (Synergy 2 Multi-Mode Microplate Reader BioTek, Winooski, VT, USA).

[3] = mean ± s.e.m. of three experiments in triplicate
[4] = dose–response, data at 5 min after ligand stimulation, compared with Galanin

Row | Molecule | Galr2 internalization (decrease of cell-surface luminescent signal) (Galr2) | Log(τ/KA), β-Arrestin1 [1] | ΔLog(τ/KA), β-Arrestin1 [1] | Log(τ/KA), β-Arrestin2 [2, 3] | ΔLog(τ/KA), β-Arrestin2 ([2]; normalized to Galanin (reference agonist), in parenthesis, mean ± s.e.m. of three experiments in triplicate) | agonism in β-arrestin1 recruitment [1, 4] | agonism in β-arrestin2 recruitment [2, 4]
1 | Galanin [reference compound] | significantly decreased the luminescent signal in a dose-dependent manner; also recorded: efficiently induced internalization in a dose-dependent manner | 7.18 ± 0.01 | 0.00 ± 0.01 | 7.20 ± 0.02 | 0.00 ± 0.02 | – | –
2 | Spexin (peptide, UniProt Q9BT56 27-116, looked up, Spexin, endogenous peptide ligand of Galr2 and Galr3; synthesized by AnyGen) Spexin: APQRLLERRNWTPQAMLYLKGAQGRRFISDQSRRKDLSDRPLPERRSPNPQLLTIPEAATILLASLQKSPEDEEKNFDQTRFLEDSLLNW | marginally induce internalization of the receptor; also recorded: Galr2 internalization was not detected; also recorded: did not detect Galr2 internalization | 6.60 ± 0.08 | −0.60 ± 0.01 | 6.40 ± 0.03 | – | partial agonists | partial agonists
